This note sets out measurements from paper PMC6895263.

Read-outs that look alike come from different tables or passages of the source.

Series [1] deals with T1, ZBTB24 ZF4-8 (Mus musculus, UniProt Q80X44 375-519).
T1 sequence: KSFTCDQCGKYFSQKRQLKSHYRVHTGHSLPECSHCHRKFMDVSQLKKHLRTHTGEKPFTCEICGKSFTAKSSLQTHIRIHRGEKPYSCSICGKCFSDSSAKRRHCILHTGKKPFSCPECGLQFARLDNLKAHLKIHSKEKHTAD
Nature of the series: X-ray crystallography.

The next series has as its target T2, GST-ZBTB24 ZF1-8 C382Y (Mus musculus, UniProt Q80X44 288-519, C382Y).
T2 sequence: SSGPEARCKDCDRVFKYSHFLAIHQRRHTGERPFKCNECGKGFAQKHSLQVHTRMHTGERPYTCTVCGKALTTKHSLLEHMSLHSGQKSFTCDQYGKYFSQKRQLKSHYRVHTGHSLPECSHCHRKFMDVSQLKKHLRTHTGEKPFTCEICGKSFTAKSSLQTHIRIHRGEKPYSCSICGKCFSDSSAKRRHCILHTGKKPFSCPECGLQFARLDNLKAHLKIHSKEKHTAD
Nature of the series: EMSA. (In general: In EMSA bound probe runs differently from free probe, usually more slowly.)

The target in the next series is T3, GST-ZBTB24 ZF1-8 C407G (Mus musculus, UniProt Q80X44 288-519, C407G).
T3 sequence: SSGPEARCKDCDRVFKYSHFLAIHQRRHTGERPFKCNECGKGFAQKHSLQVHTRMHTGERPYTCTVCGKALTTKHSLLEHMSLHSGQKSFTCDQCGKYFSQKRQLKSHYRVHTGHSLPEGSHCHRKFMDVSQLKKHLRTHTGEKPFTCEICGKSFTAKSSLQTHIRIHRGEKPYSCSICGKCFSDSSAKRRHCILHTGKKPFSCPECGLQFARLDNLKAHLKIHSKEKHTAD
As to the kind of experiment: EMSA.

The target in series [2] is T1, ZBTB24 ZF4-8. As to the kind of experiment: X-ray crystallography. This is another data set of the same source.

B1: TT oligo (6ML3) (dsDNA)
DNA 1: TTTAGCTTCCAGGACCTGCG
DNA 2: ACGCAGGTCCTGGAAGCTAA
As to B1, the binding result in the series with ZBTB24 ZF4-8 [1] is reported as “binds”.

B2: EMSA probe with ZBTB24 motif (dsDNA)
DNA 1: TCCACTGCCAGGACCTTT
DNA 2: AAAAGGTCCTGGCAGTGG
Take B2: the binding result in the series with GST-ZBTB24 ZF1-8 C382Y and with GST-ZBTB24 ZF1-8 C407G was “no binding” each time.

B3: TG oligo (6ML2) (dsDNA)
DNA 1: TTTAGCTGCCAGGACCTGCG
DNA 2: ACGCAGGTCCTGGCAGCTAA
For B3, the binding result with ZBTB24 ZF4-8 [1] is “binds”.

B4: GT oligo (6ML4) (dsDNA)
DNA 1: TGCTTCGTCCAGGACCTGCG
DNA 2: ACGCAGGTCCTGGACGAAGC
B4: the binding result in the series with ZBTB24 ZF4-8 [2] is recorded as “binds”.
